Laboratory results: patent US20180118789A1 (REGENTS OF THE UNIVERSITY OF MINNESOTA, published 2018)
Blank lines part the entries; values can stand above or below the binder they belong to. Non-standard residues stand in square brackets, D forms with d. Dap = NC[C@H](N)C(=O)O

Tests used:
Assay in all cases: cell-based or functional assay
[1] = molecular target: T1, mouse melanocortin 1 receptor (mouse, UniProt Q01727 1-315)
[2] = molecular target: T2, mouse melanocortin 5 receptor (mouse, UniProt P41149 1-325)
T2 sequence (P41149 whole entry): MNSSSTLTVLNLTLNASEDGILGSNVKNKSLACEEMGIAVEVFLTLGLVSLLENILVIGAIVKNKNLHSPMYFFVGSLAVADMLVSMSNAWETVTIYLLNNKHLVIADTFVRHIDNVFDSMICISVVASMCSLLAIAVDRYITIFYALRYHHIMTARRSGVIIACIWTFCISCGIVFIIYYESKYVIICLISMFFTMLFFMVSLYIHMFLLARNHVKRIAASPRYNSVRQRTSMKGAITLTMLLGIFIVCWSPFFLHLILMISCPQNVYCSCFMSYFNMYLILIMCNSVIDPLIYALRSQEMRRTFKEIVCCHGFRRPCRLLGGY

[3] = molecular target: T3, mouse melanocortin 3 receptor (mouse, UniProt P33033 1-323)
T3 sequence (P33033 whole entry): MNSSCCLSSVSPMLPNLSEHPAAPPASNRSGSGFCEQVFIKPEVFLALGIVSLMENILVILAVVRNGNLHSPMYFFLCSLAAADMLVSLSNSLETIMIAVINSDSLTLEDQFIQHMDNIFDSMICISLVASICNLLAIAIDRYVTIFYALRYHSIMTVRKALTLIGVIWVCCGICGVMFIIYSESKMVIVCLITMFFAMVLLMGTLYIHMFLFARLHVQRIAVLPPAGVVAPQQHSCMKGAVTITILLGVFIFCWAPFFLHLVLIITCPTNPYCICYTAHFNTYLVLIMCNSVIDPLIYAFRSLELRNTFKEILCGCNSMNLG

[4] = molecular target: T4, mouse melanocortin 4 receptor (mouse, UniProt P56450 1-332)
T4 sequence (P56450 whole entry): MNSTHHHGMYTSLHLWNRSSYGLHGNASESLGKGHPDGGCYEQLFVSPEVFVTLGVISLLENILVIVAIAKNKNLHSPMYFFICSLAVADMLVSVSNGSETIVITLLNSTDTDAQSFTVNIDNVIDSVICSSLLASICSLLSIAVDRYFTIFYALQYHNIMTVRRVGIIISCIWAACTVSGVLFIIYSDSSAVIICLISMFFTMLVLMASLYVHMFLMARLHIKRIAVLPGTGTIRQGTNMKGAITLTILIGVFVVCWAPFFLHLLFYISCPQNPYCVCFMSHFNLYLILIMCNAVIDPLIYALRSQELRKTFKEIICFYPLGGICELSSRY

[5] = molecular target: T1, mouse melanocortin 1 receptor; remark: listed apart in the source
[6] = molecular target: T2, mouse melanocortin 5 receptor; remark: listed apart in the source
[7] = molecular target: T4, mouse melanocortin 4 receptor; remark: listed apart in the source
[8] = molecular target: T3, mouse melanocortin 3 receptor; remark: listed apart in the source

T1 sequence (Q01727 whole entry): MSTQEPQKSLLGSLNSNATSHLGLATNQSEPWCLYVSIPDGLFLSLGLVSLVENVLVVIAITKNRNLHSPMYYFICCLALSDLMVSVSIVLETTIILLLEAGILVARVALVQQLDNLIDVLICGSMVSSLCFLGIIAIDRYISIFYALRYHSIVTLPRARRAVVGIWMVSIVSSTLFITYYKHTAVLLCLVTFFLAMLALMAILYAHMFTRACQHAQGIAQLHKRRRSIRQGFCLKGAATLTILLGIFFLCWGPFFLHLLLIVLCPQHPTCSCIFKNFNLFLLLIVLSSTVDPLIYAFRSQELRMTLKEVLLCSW

Binder: cyclo(PH[dF]RW[Dap][dP]) (also: TFA salt) [MDE6-12-2c, c[Pro-His-DPhe-Arg-Trp-Dap-DPro]]
fold decrease of agonist potency relative to MDE6-5-2c [5]: 418 fold
fold decrease of agonist potency relative to MDE6-5-2c [6]: 1100 fold
fold decrease of agonist potency relative to MDE6-5-2c [7]: 593 fold
EC50 (nM), agonist, cAMP AlphaScreen [1]: 460 nM
EC50 (nM), agonist, cAMP AlphaScreen [2]: 330 nM
percent maximal stimulatory response observed at 100 µM [3]: 65%
EC50 (nM), agonist, cAMP AlphaScreen [4]: 950 nM

Binder: cyclo(PH[dF]RWNA[dP]) (also: TFA salt) [MDE6-3-2c, c[Pro-His-DPhe-Arg-Trp-Asn-Ala-DPro]]
fold loss of agonist potency relative to MDE5-149-2c [5]: 34 fold
fold loss of agonist potency relative to MDE5-149-2c [6]: 5 fold
fold loss of agonist potency relative to MDE5-149-2c [8]: 9 fold
fold loss of agonist potency relative to MDE5-149-2c [7]: 21 fold
EC50 (nM), agonist, cAMP AlphaScreen [1]: 12 nM
EC50 (nM), agonist, cAMP AlphaScreen [2]: 2.1 nM
EC50 (nM), agonist, cAMP AlphaScreen [3]: 300 nM
EC50 (nM), agonist, cAMP AlphaScreen [4]: 29 nM

Binder: cyclo(P[dF]RW[Dap]AF[dP]) (also: TFA salt) [MDE5-151-1c, c[Pro-DPhe-Arg-Trp-Dap-Ala-Phe-DPro]]
apparent EC50 (nM), partial agonist, cAMP AlphaScreen [1]: 190 nM
partial agonist, percent maximal NDP stimulation [1]: 45%
EC50 (nM), agonist, cAMP AlphaScreen [2]: 46 nM
apparent EC50 (nM), partial agonist, cAMP AlphaScreen [3]: 3000 nM
partial agonist, percent maximal NDP stimulation [3]: 70%
EC50 (nM), agonist, cAMP AlphaScreen [4]: 100 nM

Binder: cyclo(P[dF]RW[Dap][dP]) (also: TFA salt) [MDE6-12-1c, c[Pro-DPhe-Arg-Trp-Dap-DPro]]
apparent EC50 (nM), partial agonist, cAMP AlphaScreen [1]: 110 nM
partial agonist, percent maximal NDP stimulation [1]: 75%
EC50 (nM), agonist, cAMP AlphaScreen (lacked agonist activity at up to 100 µM) [2]: > 100000 nM
EC50 (nM), agonist, cAMP AlphaScreen (lacked agonist activity at up to 100 µM) [3]: > 100000 nM
percent maximal stimulatory response observed at 100 µM [4]: 35%

Binder: cyclo(PH[dF]RWN[dP]) (also: TFA salt) [MDE6-10-2c, c[Pro-His-DPhe-Arg-Trp-Asn-DPro]]
fold decrease of agonist potency relative to MDE5-149-2c [5]: 143 fold
fold decrease of agonist potency relative to MDE5-149-2c [6]: 37 fold
fold decrease of agonist potency relative to MDE5-149-2c [7]: 121 fold
EC50 (nM), agonist, cAMP AlphaScreen [1]: 50 nM
EC50 (nM), agonist, cAMP AlphaScreen [2]: 16.8 nM
apparent EC50 (nM), partial agonist, cAMP AlphaScreen [3]: 510 nM
partial agonist, percent maximal NDP stimulation [3]: 65%
EC50 (nM), agonist, cAMP AlphaScreen [4]: 170 nM

Binder: cyclo(P[dF]RWNAF[dP]) (also: TFA salt) [MDE5-149-1c, c[Pro-DPhe-Arg-Trp-Asn-Ala-Phe-DPro]]
fold decreased potency relative to MDE5-149-2c [5]: 1140 fold
fold decreased potency relative to MDE5-149-2c [6]: 90 fold
fold decreased potency relative to MDE5-149-2c [7]: 90 fold
EC50 (nM), agonist, cAMP AlphaScreen [1]: 400 nM
EC50 (nM), agonist, cAMP AlphaScreen [2]: 40 nM
percent maximal stimulatory response observed at 100 µM [3]: 45%
EC50 (nM), agonist, cAMP AlphaScreen [4]: 130 nM

Binder: cyclo(PH[dF]RW[Dap]AF[dP]) (also: TFA salt) [MDE5-151-2c, c[Pro-His-DPhe-Arg-Trp-Dap-Ala-Phe-DPro]]
fold decreased potency relative to MDE5-149-2c [5]: 70 fold
EC50 (nM), agonist, cAMP AlphaScreen [1]: 24 nM
EC50 (nM), agonist, cAMP AlphaScreen [2]: 18 nM
EC50 (nM), agonist, cAMP AlphaScreen [3]: 260 nM
apparent EC50 (nM), partial agonist, cAMP AlphaScreen [4]: 23 nM
partial agonist, percent maximal NDP stimulation [4]: 70%

Binder: cyclo(PH[dF]RW[dP]) (also: TFA salt) [MDE5-147-2c, c[Pro-His-DPhe-Arg-Trp-DPro]]
EC50 (nM), agonist, cAMP AlphaScreen [1]: 900 nM
EC50 (nM), agonist, cAMP AlphaScreen [2]: 6000 nM
percent maximal stimulatory response observed at 100 µM [3]: 60%
percent maximal stimulatory response observed at 100 µM [4]: 65%

More lines, now with the values ahead:

EC50 (nM), agonist, cAMP AlphaScreen [1]: 0.35 nM
EC50 (nM), agonist, cAMP AlphaScreen [2]: 0.45 nM
EC50 (nM), agonist, cAMP AlphaScreen [3]: 32 nM
EC50 (nM), agonist, cAMP AlphaScreen [4]: 1.4 nM
Binder: cyclo(PH[dF]RWNAF[dP]) (also: TFA salt) [MDE5-149-2c, c[Pro-His-DPhe-Arg-Trp-Asn-Ala-Phe-DPro]]

EC50 (nM), agonist, cAMP AlphaScreen [1]: 1.1 nM
EC50 (nM), agonist, cAMP AlphaScreen [2]: 0.3 nM
EC50 (nM), agonist, cAMP AlphaScreen [3]: 40 nM
EC50 (nM), agonist, cAMP AlphaScreen [4]: 1.6 nM
Binder: cyclo(PH[dF]RW[Dap]A[dP]) (also: TFA salt) [MDE6-5-2c, c[Pro-His-DPhe-Arg-Trp-Dap-Ala-DPro]]

fold increase of agonist potency over MDE5-149-1c [5]: 10 fold
fold decrease of agonist potency against MDE5-149-1c [7]: 8 fold
EC50 (nM), agonist, cAMP AlphaScreen [1]: 40 nM
percent maximal stimulatory response observed at 100 µM [2]: 25%
EC50 (nM), agonist, cAMP AlphaScreen (lacked agonist activity at up to 100 µM) [3]: > 100000 nM
EC50 (nM), agonist, cAMP AlphaScreen [4]: 1100 nM
Binder: cyclo(P[dF]RWN[dP]) (also: TFA salt) [MDE6-10-1c, c[Pro-DPhe-Arg-Trp-Asn-DPro]]

EC50 (nM), agonist, cAMP AlphaScreen [1]: 1800 nM
percent maximal stimulatory response observed at 100 µM [2]: 75%
EC50 (nM), agonist, cAMP AlphaScreen (lacked agonist activity at up to 100 µM) [3]: > 100000 nM
percent maximal stimulatory response observed at 100 µM [4]: 50%
Binder: cyclo(P[dF]RW[dP]) (also: TFA salt) [MDE5-147-1c, c[Pro-DPhe-Arg-Trp-DPro]]

EC50 (nM), agonist, cAMP AlphaScreen [1]: 600 nM
EC50 (nM), agonist, cAMP AlphaScreen [2]: 48 nM
percent maximal stimulatory response observed at 100 µM [3]: 70%
EC50 (nM), agonist, cAMP AlphaScreen [4]: 150 nM
Binder: cyclo(P[dF]RW[Dap]A[dP]) (also: TFA salt) [MDE6-5-1c, c[Pro-DPhe-Arg-Trp-Dap-Ala-DPro]]

EC50 (nM), agonist, cAMP AlphaScreen [1]: 500 nM
EC50 (nM), agonist, cAMP AlphaScreen [2]: 70 nM
percent maximal stimulatory response observed at 100 µM [3]: 55%
EC50 (nM), agonist, cAMP AlphaScreen [4]: 420 nM
Binder: cyclo(P[dF]RWNA[dP]) (also: TFA salt) [MDE6-3-1c, c[Pro-DPhe-Arg-Trp-Asn-Ala-DPro]]
